Data on 1 molecule can be found in patent US20250283065A1, “TRUNCATED POLYPEPTIDES HAVING PROTEIN LIGASE ACTIVITY AND METHODS OF PRODUCTION THEREOF” (NANYANG TECHNOLOGICAL UNIVERSITY, priority 2022, published 2025).

The test system of test [1] is OaAEP1b-C247A-Δ351. As to the kind of experiment: Active site titration by FRET ligation assay with covalent inhibitor. To be noted: 1 hour incubation with Ac-YVAD-cmk, enzyme 280 nM. Format: biochemical, Oldenlandia affinis. As for the experimental part: Active site titration: The procedure described in reference was followed. The enzyme preparation was diluted to a concentration of 280 nM using a buffer containing 20 mM sodium phosphate at pH 6.5, 5 mM 2-Mercaptoethanol. Solutions containing serial twofold dilution of inhibitor YVAD-cmk were prepared in a black microtiter plate (Greiner Bio-One) using buffer as diluent. The enzyme was subsequently added to the wells containing the inhibitor to a final volume of 50 μL. The plate was incubated for 1 hour at room temperature before adding FRET peptides (PIE {EDANS} YNAL (SEQ ID NO:18) and GIK {DABSYL} SIP (SEQ ID NO: 19)), which were mixed at a molar ratio of 1:3 giving a final enzyme: substrate molar ratio of 1:200. The EDANS fluorescence signal was measured with an excitation wavelength of 336 nm and an emission wavelength of 490 nm. Relative fluorescence units (RFU) of quenched EDANS signal were plotted against time. The value of the initial velocity (Vi) was determined from the slope of the RFU (t) curve. The measured value of Vi was subsequently normalized by dividing with the initial rate obtained in the absence of inhibitor (control V0). The calculated Vi/V0 ratio was plotted against inhibitor concentrations, generating an inhibition curve. […]

Test [2] deals with linear NH2-GLPVSTKPVATRNAL-COOH peptide substrate. In words: Peptide cyclization assay (MALDI-TOF MS). Format: biochemical. To be noted: 37° C., after twelve minutes of reaction time. How it is done:
Peptide cyclization assay: The peptide used for cyclization assay was purchased commercially from GenScript, NH2-GLPVSTKPVATRNAL-COOH (SEQ ID NO:17). Cyclization assays were performed in 50 μl reaction mixtures containing 20 mM phosphate buffer, pH 6.5, ligases (40 nM) and peptide substrates (20 μM). Reaction was performed at 37° C., for 1 hour. The cyclization product was analyzed by MALDI-TOF MS (ABI 4800 MALDI TOF/TOF).
To evaluate the cyclization activity of the purified OaAEP1b-C247A-Δ351, the enzyme was tested against a linear NH2-GLPVSTKPVATRNAL-COOH (SEQ ID NO:17) peptide substrate (labelled “LS”) (FIG. 6A). The cyclization reaction was performed at 37° C., and samples were collected every two minutes. MALDI-TOF MS was subsequently utilized to detect a cyclized product (labelled “CP”). Successful cyclization carried out by the active ligase of the LS with a mass of 1524 Da would result in CP with a mass of 1321 Da (FIG. 6A). After twelve minutes of reaction time, OaAEP1b-C247A-Δ351 had converted the majority of the linear substrate to the circularized product. No LS peak could be detected compared to a high CP peak detected in the MALDI-TOF mass spectra of the reaction mixture.

Test [3] concerns TrmJ-NAL. As to the kind of experiment: Conjugation of TrmJ with a fluorescent peptide (SDS PAGE). In kind it is biochemical. To be noted: 200 nM enzyme, 37° C., after an hour of reaction time. As for the experimental part:
Conjugation of TrmJ: A concentration of 200 nM of OaAEP1b-C247A-4351 was used to conjugate 10 μM of TrmJ-NAL with 50 μM of a short fluorescence peptide synthesized by Genscript: GIGGIYRK-FITC (SEQ ID NO:21). This reaction was carried out in a 20 mM NaH2PO4, pH 6.5 at 37° C. for 1 hour with a final volume of 500 μL. A volume of 50 µL of the reaction was mixed with 5×SDS loading dye after 5, 10, 20, 30 and 60 minutes. The amount of conjugated TrmJ-NAL at all time points was then analyzed using SDS PAGE.
To evaluate OaAEP1b-C247A-Δ351 conjugation capability, a protein of 20 kDa, tRNA methyltransferase, TrmJ were conjugated. TrmJ was modified to include the C-terminal OaAEP1b-C247A-Δ351 preferred tripeptide recognition motif (Asn-Ala-Leu). Using 200 nM of OaAEP1b-C247A-Δ351, TrmJ present in the solution was able to conjugate with a short fluorescence peptide consisting of an N-terminal Gly/Ile (GIGGIYRK-FITC) (SEQ ID NO: 21). The conjugation rate at 37° C. was analyzed using SDS PAGE at […] different time points.

B1: OaAEP1b-C247A-Δ351: truncated OaAEP1b-C247A construct, residues 352-474 deleted, D351 as C-terminus; constitutively active peptide asparaginyl ligase (protein)
chain: GTRWAVLIAGSKGYANYRHQAGVCHAYQILKRGGLKDENIVVFMYDDIAYNESNPRPGVIINSPHGSDVYAGVPKDYTGEEVNAKNFLAAILGNKSAITGGSGKVVDSGPNDHIFIYYTDHGAAGVIGMPSKPYLYADELNDALKKKHASGTYKSLVFYLEACESGSMFEGILPEDLNIYALTSTNTTESSWCYYCPAQENPPPPEYNVCLGDLFSVAWLEDSDVQNSWYETLNQQYHHVDKRISHASHATQYGNLKLGEEGLFVYMGSNPANDNYTSLDGNALTPSSIVVNQRDAD
As to B1, the “fraction of the measured protein concentration that is active and amenable to complete inhibition” value in test [1] was “about 53%”. Also, the “cyclization of linear substrate to cyclized product” value in test [2] is “complete cyclization reaction”. The “conjugation of TrmJ with GIGGIYRK-FITC” value in test [3] is listed as “most of TrmJ was labelled with FITC”.
